Source: patent publication US20170267762A1 (APOLLOMICS, published 2017)

Legend:
[1] = biological target: T1, human PD-1 on cells (293T cells transfected with human PD-1) (human, UniProt Q15116 25-288); assay: FACS ligand blockage: PD-L1 binding to 293T-PD1 cells
T1 construct: whole, on cells; Also used as the target for the functional rows, where PD-1 stands on human T cells

[2] = biological target: T2, human PD-1 (construct not stated) (human, UniProt Q15116 25-167, limits assumed); assay: SPR (Biacore 3000), antibody captured on the chip, PD-1 as analyte, 1:1 Langmuir fit
T2 construct: also called PD-1 analyte
Description: To characterize the binding characteristics of the humanized antibodies, the binding kinetics between PD-1 and PD-1 antibodies were measured by Biacore3000 and recorded with a data collection rate of 1 Hz. The polyclonal rabbit anti-mouse IgG (GE, BR-1008-38) was diluted with 10 mM pH 5.0 sodium acetate and immobilized onto reference and experiment flow cells of a CMS biosensor chip to around 15000 RU using an amine coupling kit (GE, BR10050). In the beginning of each cycle, diluted test antibody (1.5 μg/mL) was injected over experiment flow cell for 1 minute to be captured. PD-1 analyte series were prepared by diluting the stocks with running buffer to 100nM followed by 2× serial dilution in the same buffer down to 0.78nM. Analytes were injected in series over the reference and experiment flow cells for 3 minutes at a flow rate of 30 μL/minute. Then running buffer (PBS with 0.05% P20) was allowed to flow over for 10 minutes at a flow rate of 30 μL/minute. At the end of each cycle, the biosensor surface was regenerated with 3 minutes injection of 10 mM pH1.7 Glycine-HC1 buffer at a flow rate of 10 μL/minute. For each analyte sample injection (i.e. each cycle), binding responses obtained from the experimental biosensor surface were double referenced by subtracting simultaneously recorded responses from the reference surface followed by additional subtraction of responses from a single referenced running buffer sample. The association and dissociation rate constants (ka and kd) were determined simultaneously by fitting double-referenced sensorgrams of the entire titration series to Langmuir model (1:1) using Biaevaluation 4.0 software. The dissociation constant, KD, was calculated from the determined rate constants by the relation KD =kd/ka. […] The Biocore binding curves are shown in FIGS. 10 and 17A, top panel, and the quantified binding data are summarized in FIGS. 10 and 17A, bottom panel.

[3] = biological target: T1, human PD-1 on cells (293T cells …); assay: FACS binding to 293T cells expressing human PD-1, MFI
Description: The cells were incubated with the indicated antibody (20 ug/ml with the dilution of ⅕) at 4° C. for 1 h. Cells were washed three times with FACS buffer. A secondary antibody (PE Goat anti-mouse: 1:200; PE mouse anti-human: 1:10) was added to the cells at 100 ul/well, and incubated at 4° C. for 40min. Cells were washed three times with FACS buffer and analyzed by FACS Array.

[4] = biological target: T1, human PD-1 on cells (293T cells …); assay: FACS ligand blockage: biotin-labeled PD-L1 binding to 293T cells expressing human PD-1, MFI
Description: Various concentrations of the testing hybridoma antibodies were added to the cell suspension and incubated at 4° C. for 60 minutes in 96 well plates. […] Plates were washed 3 times, and mouse anti-biotin PE antibody (Biolgend, cat# 409004) was added. Flow cytometric analyses were performed using a FACS Array.

[5] = biological target: T3, human PD-1 extracellular domain fused with human Fc tag (hPD-1-hFc) (human); assay: ELISA binding to plate-bound PD-1, OD450 (methods similar to Example 2: plate coated with PD1-hFc)
T3 construct: also called human PD-1-hFc
Description: ELISA binding analysis was conducted based on human PD-1-hFc Protein. 96-well plates (Costar, Cat No:9018) were coated with 100 μL of 2 μg/ml PD1-hFc (CrownBio) in coating buffer (PBS, Hyclone, Cat No:SH30256.01B) overnight at 4° C. The wells were aspirated and non-specific binding sites were blocked by adding 200 μL of blocking buffer with 1% (w/v) of bovine serum albumin (BSA, Roche, Cat No: 738328) and incubating for 1 hour at 37° C. After the plates are washed three times with wash buffer (PBS with 0.05%(v/v) Tween20 (Sigma, Cat No:P1379), 100 μL/well of a suitable dilutions of hybridoma supernatant in blocking buffer were added and incubated at room temperature for 1 hour. The plates were washed and incubated with 100 μL/well of Goat anti-Mouse IgG (H+L) (Thermo, Cat No: 31432) in blocking buffer for 60 min. After the plates were washed, 100 μL/well of substrate solution (TMB(eBioscience, Cat No:00-4201-56) was added and the plates were incubated for 2min at room temperature. 100 μL/well of stop solution (2N H2SO4) was added to stop the reaction. The colorimetric signals were developed and read at 450 nm using a Auto Plate SpectraMax Plus (Supplier: Molecular Devices; Model: MNR0643; Software: SoftMax Pro v5.4).

[6] = biological target: T4, human PD-1 extracellular domain fused with mouse Fc (PD-1-mFc) (human, UniProt Q15116 25-170); assay: ELISA ligand blockage: biotinylated PD-L1-mFc binding to plate-bound PD-1, OD450 (methods similar to Example 2: PD-1-mFc coated)
T4 construct: extracellular domain; not used because of the label; also called hPD-1-mFc; human PD-1-mouse Fc fusion protein
Description: PD-1-mFc antigen (CrownBio) was suspended in PBS (Hyclone,Cat No:SH30256.01B) buffer (2 ug/ml, 100 ul/ well) and coated on the 96 well plate (costar, Cat No.:9018) 4° C. overnight. Plates were washed 3 times using washing buffer: PBS+0.05% Tween 20(Sigma, Cat No.:P1379). 200 ul of blocking buffer (PBS+1%BSA(Roche, Cat No.:738328)), was added to each well, incubated at 37° C. for 1 hour, and washed 3 times. Various concentrations (suitable dilutions of hybridoma supernatant in PBS) of the anti-PD-1 Abs were added to the wells (100 μl/well) and incubated at 37° C. for 1 hour. […] Secondary antibody (Avidin HRP eBioscience cat No.:E07418-1632, 1:500, 100 ul/well) was added, incubated at 37 ° C. for 0.5 hour, and washed 3 times. TMB (Sigma, Cat No.: T0440, 100 ul/well) was added, and incubated for 3 min at RT. To stop the reaction, 2N H2SO4 (100 ul/well), was added. The colorimetric signals were developed and read at 450 nm using a Auto Plate SpectraMax Plus (Supplier: Molecular Devices; Model: MNR0643; Software: SoftMax Pro v5.4).

T1 sequence (Q15116 25-288): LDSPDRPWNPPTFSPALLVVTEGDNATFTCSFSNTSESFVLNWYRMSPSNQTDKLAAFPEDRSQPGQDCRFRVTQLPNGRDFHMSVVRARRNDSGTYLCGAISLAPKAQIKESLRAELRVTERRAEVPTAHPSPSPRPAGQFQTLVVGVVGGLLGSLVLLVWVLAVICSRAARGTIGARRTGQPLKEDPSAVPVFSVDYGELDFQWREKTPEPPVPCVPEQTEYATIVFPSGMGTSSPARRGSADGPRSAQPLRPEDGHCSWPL
T2 sequence (Q15116 25-167 limits assumed): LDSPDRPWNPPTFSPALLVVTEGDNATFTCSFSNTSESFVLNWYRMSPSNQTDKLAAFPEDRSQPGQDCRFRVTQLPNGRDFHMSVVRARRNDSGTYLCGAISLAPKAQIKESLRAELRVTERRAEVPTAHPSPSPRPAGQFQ
T3 sequence (chain, as listed by the source limits assumed): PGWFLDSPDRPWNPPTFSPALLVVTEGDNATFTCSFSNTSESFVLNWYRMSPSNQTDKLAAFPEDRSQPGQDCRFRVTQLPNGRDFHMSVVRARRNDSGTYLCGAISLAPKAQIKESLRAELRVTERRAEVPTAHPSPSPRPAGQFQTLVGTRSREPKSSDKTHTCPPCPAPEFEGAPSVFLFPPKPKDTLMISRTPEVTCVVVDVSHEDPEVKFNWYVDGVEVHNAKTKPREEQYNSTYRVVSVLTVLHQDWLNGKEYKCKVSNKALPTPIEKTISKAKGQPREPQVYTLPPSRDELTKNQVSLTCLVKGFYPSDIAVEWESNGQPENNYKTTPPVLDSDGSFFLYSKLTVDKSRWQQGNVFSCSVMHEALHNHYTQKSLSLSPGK
T4 sequence (Q15116 25-170): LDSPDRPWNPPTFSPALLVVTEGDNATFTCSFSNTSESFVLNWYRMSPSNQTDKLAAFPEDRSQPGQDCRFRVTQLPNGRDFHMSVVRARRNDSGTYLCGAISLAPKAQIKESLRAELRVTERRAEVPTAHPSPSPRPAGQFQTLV

Binder	IC50 [1]	Ka [2]	Kd [2]	koff [2]	kon [2]	EC50 [3]	IC50 [4]	EC50 [5]	IC50 [6]
humanized 7A4D-hIgG4 (antibody, V domains shown, also called h7A4D) VH: QIQLVQSGSELKKPGASVKVSCKASGYTFTNFGMNWVRQAPGQGLKWMGWISGYTREPTYAADFKGRFVISLDTSVSTAYLQISSLKAEDTAVYYCARDVFDYWGQGTLVTVSS VL: DIVLTQSPASLAVSPGQRATITCRASESVDNYGYSFMNWFQQKPGQPPKLLIYRASNLESGVPARFSGSGSRTDFTLTINPVEADDTANYYCQQSNADPTFGQGTKLEIKR	0.0258 µg/mL	2.55e+09 M⁻¹	0.391 nM	0.000532 s⁻¹	1.36e+06 M⁻¹ s⁻¹	–	–	–	–
humanized 7A4-hIgG1 (antibody, IgG1 constant region with D265A, already in the entry; also called h7A4-IgG1; hu-7A4-D265A-hIgG1) heavy: not shown light: DIVLTQSPASLAVSPGQRATITCRASESVDNYGYSFMNWFQQKPGQPPKLLIYRASNLESGVPARFSGSGSRTDFTLTINPVEANDTANYYCQQSNADPTFGQGTKLEIKRTVAAPSVFIFPPSDEQLKSGTASVVCLLNNFYPREAKVQWKVDNALQSGNSQESVTEQDSKDSTYSLSSTLTLSKADYEKHKVYACEVTHQGLSSPVTKSFNRGEC	–	9.82e+09 M⁻¹	0.102 nM	0.000212 s⁻¹	2.09e+06 M⁻¹ s⁻¹	0.0332 µg/mL	0.00761 µg/mL	0.0331 µg/mL	0.763 µg/mL
